# Test results: publication PMC10156788, “Molecular architecture of the Gαi-bound TRPC5 ion channel” (Nature Communications, 2023)
# B1: N-myristoylated human Gαi3^Q204L, GTP-activated (natural protein)
# chain: TLSAEDKAAVERSKMIDRNLREDGEKAAKEVKLLLLGAGESGKSTIVKQMKIIHEDGYSEDECKQYKVVVYSNTIQSIIAIIRAMGRLKIDFGEAARADDARQLFVLAGSAEEGVMTPELAGVIKRLWRDGGVQACFSRSREYQLNDSASYYLNDLDRISQSNYIPTQQDVLRTRVKTTGIVETHFTFKDLYFKMFDVGGLRSERKKWIHCFEGVTAIIFCVALSDYDLVLAEDEEMNRMHESMKLFDSICNNKWFTETSIILFLNKKDLFEEKIKRSPLTICYPEYTGSNTYEEAAAYIQCQFEDLNRRKDTKEIYTHFTCATDTKNVQFVFDAVTDVIIKNNLKE
# modifications: myristoylation at the N-terminal glycine
# notes: hexa-histidine tag inserted between M119 and T120; Incubated with 1 mM GTP for 1 h at 30 °C before use; The His tag is internal and no cleavage is described; Myristoylation of the N-terminal glycine implies loss of the first methionine; also called myristoylated Gαi3^Q204L
# Assays:
# [1] = target: T1, human TRPC5 (amino acids 1 to 765, TRPC5EM) in lipid nanodiscs, EGFP and Twin-StrepII-tag removed (human, UniProt Q9UL62 1-765); experiment: cryo-EM structure; TRPC5EM in MSP2N2/soybean lipid nanodiscs, alone or mixed with GTP-activated N-myristoylated Gαi3^Q204L at Gα:TRPC5 monomer = 6:1; Buffer A (50 mM Tris-HCl pH 8.0, 150 mM NaCl, 1 mM DTT) with 5 μM GTP; 2.5 mM CaCl2 added before vitrification; no PIP2; details: both partners purified
# T1 construct: transient receptor potential canonical 5 (TRPC5), human, amino acids 1 to 765; C-terminal loop region (residues 766-973) truncated; Tags removed with HRV-3C protease after the complex with Gαi3 was formed; residues of the HRV-3C site may be left at the C-terminus; Reconstituted in MSP2N2 nanodiscs; also called TRPC5_(Class1); TRPC5_(Class2); source: HEK293S GnTI- suspension cells (BacMam), …
# T1 sequence (looked up): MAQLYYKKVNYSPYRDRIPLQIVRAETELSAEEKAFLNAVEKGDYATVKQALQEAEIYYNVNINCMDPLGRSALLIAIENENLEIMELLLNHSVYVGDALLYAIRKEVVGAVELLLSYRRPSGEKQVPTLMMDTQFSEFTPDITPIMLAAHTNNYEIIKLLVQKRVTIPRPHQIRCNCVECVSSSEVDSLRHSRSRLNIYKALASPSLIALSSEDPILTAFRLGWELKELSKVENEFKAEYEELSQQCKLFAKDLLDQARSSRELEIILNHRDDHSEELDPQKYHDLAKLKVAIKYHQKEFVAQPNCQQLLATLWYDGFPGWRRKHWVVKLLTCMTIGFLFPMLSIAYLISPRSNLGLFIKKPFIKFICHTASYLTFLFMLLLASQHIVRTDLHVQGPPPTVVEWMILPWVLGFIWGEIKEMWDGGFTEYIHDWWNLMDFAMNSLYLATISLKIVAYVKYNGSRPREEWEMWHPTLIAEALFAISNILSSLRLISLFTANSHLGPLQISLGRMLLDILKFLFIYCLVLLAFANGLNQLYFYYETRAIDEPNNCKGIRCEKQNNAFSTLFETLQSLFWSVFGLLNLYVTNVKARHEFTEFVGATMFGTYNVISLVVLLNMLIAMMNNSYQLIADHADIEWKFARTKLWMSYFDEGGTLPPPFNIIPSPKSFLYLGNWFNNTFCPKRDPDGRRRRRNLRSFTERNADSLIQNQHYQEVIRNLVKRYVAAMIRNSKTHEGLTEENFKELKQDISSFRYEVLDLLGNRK
# [2] = target: T2, EGFP-tagged human TRPC5EM (amino acids 1 to 765) in lipid nanodiscs (human, UniProt Q9UL62 1-765); experiment: cell-based or functional assay
# T2 sequence (looked up): T1 sequence (looked up)
# [3] = target: T2, EGFP-tagged human TRPC5EM (amino acids …); experiment: BLI; BLItz, AR2G biosensors; EGFP-tagged TRPC5 in lipid nanodiscs (500 nM) immobilised by NHS/EDC; GTP-activated Gαi3^Q204L flowed at 0.31-1.25 μM, 300 s association, 300 s dissociation; 20 mM HEPES-NaOH pH 8.0, 150 mM NaCl; fitted by specific binding with Hill slope; details: both partners purified
binder,measurement,setting,value
B1,stoichiometry N,[1],≤ 4 Gαi3 per TRPC5 tetramer
same,"fold increase in open probability (Po) by Gαi3 (14.6 μM against 0.07 μM) at physiological PIP2, excised inside-out patch",[2],~7 fold
same,Kd,[3],530 nM
